Biological target: T1, PA-SERCA2b (recombinant SERCA2b with an N-terminal PA-tag) (human, UniProt P16615-1 1-1042)
T1 construct: human SERCA2b; cDNA in the pFastBac1 vector; source: Sf21 cells (baculovirus), solubilised with DDM, purified on anti-PA-tag NZ-1 Sepharose, eluted with PA-tag peptide; not shown: PA-tag, N-terminal, kept
Assay: pull-down; PA-SERCA2b (50 pmol) incubated with FLAG–TER (125 pmol) immobilised on anti-FLAG mAb resin, or resin alone, 4 °C 2 h; buffer H (50 mM Hepes–NaOH pH 7.0, 100 mM NaCl, 1 mM MgCl2, 5 mM EGTA, 1% DDM, 20% glycerol) with or without 100 nM free Ca2+; CBB staining; also 0.25 uM PA-SERCA2b pretreated with 2.5 uM thapsigargin (less pulled down)
Settings: both partners purified

T1 sequence (P16615 whole entry): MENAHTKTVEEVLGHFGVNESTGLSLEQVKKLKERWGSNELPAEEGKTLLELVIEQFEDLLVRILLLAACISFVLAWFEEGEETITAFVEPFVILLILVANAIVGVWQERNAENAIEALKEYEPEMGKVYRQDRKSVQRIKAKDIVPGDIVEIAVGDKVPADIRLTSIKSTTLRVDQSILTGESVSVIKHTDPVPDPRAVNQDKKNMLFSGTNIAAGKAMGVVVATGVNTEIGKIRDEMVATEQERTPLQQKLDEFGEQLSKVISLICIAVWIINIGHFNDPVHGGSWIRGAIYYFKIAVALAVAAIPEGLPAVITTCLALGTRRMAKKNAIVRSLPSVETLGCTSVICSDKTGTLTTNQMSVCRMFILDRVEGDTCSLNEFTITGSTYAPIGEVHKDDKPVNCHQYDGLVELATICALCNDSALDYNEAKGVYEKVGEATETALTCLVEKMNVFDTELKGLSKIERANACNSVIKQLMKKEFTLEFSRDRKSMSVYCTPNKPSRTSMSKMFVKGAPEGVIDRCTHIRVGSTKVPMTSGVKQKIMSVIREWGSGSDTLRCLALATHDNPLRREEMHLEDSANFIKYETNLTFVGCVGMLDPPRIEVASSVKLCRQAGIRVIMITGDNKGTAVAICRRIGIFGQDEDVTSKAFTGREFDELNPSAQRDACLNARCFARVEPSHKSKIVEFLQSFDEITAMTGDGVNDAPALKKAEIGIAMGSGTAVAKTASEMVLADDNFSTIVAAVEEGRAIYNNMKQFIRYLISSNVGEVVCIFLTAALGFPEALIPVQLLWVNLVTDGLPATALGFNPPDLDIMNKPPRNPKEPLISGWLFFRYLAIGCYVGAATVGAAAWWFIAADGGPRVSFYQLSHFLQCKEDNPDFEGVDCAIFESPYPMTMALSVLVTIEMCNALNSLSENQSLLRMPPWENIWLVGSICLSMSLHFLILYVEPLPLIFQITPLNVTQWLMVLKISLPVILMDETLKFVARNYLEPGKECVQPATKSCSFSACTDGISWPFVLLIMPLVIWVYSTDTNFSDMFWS

B1: FLAG–TER (recombinant TER with an N-terminal FLAG-tag), from insect cells (enzyme, human, UniProt Q9NZ01 1-308, looked up)
chain: MKHYEVEILDAKTREKLCFLDKVEPHATIAEIKNLFTKTHPQWYPARQSLRLDPKGKSLKDEDVLQKLPVGTTATLYFRDLGAQISWVTVFLTEYAGPLFIYLLFYFRVPFIYGHKYDFTSSRHTVVHLACICHSFHYIKRLLETLFVHRFSHGTMPLRNIFKNCTYYWGFAAWMAYYINHPLYTPPTYGAQQVKLALAIFVICQLGNFSIHMALRDLRPAGSKTRKIPYPTKNPFTWLFLLVSCPNYTYEVGSWIGFAIMTQCLPVALFSLVGFTQMTIWAKGKHRSYLKEFRDYPPLRMPIIPFLL
notes: human trans-2-enoyl-CoA reductase (TER); cDNA in the pFastBacFLAGa vector; not shown: FLAG, N-terminal, kept
binding result: binds

Reference: publication PMC7949109, “Trans-2-enoyl-CoA reductase limits Ca^2+ accumulation in the endoplasmic reticulum by inhibiting the Ca^2+ pump SERCA2b” (The Journal of Biological Chemistry, 2021)
